# Data reported in article PMC10531801.
# pKd: −log10 of the molar value.
# System: Gp49 (Bacillus phage SPO1)
# Assay: SPR
# Settings: EMSA: 20 mM Tris, 50 mM NaCl, pH 7.5, 30 min at 4 C, 2% agarose in 0.5x TBE; SPR: Biacore T100, CM5, 25 C, buffer not stated
sequence,measurement,value
AUGAAUAGUUAAACAACGUGG [ssRNA],pKd,5.73
